Test results published in patent US20150247135A1 (LIGACEPT, published 2015).

Columns and labels:
[1] = molecular target: T1, E4-Fc (amino acids 1-497 of ErbB4 joined to the IgG2Fc portion) (UniProt Q15303 26-522; P01859 104-326 = IgG part); assay: trap coated on 96 well plate, varying HRG1β, detection antibody; Std Error Kd 3.128 nM
T1 construct: range 1-497;domain: IgG2Fc; Control trap; The 1-497 range counts on mature ErbB4 without the signal peptide; also called ErbB4-IgGFc
Protocol: (§1) Purified trap molecules were coated on 96 well plates and incubated with either TGFα or HRG1β. Then detection antibodies against TGFα or HRG1β were used to measure the affinity (Kd) and amount of bound ligand (Bmax).
(§2) Traps were coated on 96 well plates and incubated with varying concentrations of either TGFα or HRG1β. Detection antibodies against TGFα or HRG1β were used to measure the affinity (Kd) and amount of bound ligand (Bmax).

[2] = molecular target: T1, E4-Fc (amino acids 1-497 of ErbB4 …); assay: trap coated on 96 well plate, varying HRG1β, detection antibody; Std Error Kd 2.92 nM
Protocol: as §1, §2

T1 sequence (Q15303 other isoform, or with tags, fused parts or gaps limits assumed): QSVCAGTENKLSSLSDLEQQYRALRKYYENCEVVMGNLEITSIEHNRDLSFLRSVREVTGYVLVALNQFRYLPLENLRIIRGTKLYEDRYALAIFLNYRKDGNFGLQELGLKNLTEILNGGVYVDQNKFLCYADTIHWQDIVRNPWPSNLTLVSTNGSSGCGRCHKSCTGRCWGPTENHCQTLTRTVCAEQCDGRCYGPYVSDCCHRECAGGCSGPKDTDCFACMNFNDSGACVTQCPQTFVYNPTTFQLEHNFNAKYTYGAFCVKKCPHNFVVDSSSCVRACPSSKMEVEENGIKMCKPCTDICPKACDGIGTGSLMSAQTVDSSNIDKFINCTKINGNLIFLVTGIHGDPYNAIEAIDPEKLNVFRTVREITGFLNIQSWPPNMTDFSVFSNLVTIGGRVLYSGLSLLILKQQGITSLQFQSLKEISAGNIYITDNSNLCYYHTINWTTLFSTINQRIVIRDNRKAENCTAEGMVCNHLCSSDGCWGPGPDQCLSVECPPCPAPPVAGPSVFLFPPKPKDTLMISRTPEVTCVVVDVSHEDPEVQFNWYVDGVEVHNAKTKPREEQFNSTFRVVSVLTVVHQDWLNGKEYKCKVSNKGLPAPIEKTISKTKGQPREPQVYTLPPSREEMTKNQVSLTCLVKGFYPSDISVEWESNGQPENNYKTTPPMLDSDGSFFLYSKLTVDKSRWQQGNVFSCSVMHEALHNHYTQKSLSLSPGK

B1: HRG1β (ligand, UniProt Q02297-6 177-241, looked up)
chain: SHLVKCAEKEKTFCVNGGECFMVKDLSNPSRYLCKCPNEFTGDRCQNYVMASFYKHLGIEFMEAE
notes: Soluble ligand incubated with the coated traps; also called heregulin
B1 was tested, and the Kd [1] was 14.5 nM and the Kd [2] was 21.2 nM.
